Test results published in patent US20250340659A1 (PETMEDIX, published 2025).

T1: recombinant canine OX40L ECD-TNCc-HIS protein (canine)
T1 construct: also called Trimeric OX40L probe (HIS tag); trimeric canine OX40L
T1 chain: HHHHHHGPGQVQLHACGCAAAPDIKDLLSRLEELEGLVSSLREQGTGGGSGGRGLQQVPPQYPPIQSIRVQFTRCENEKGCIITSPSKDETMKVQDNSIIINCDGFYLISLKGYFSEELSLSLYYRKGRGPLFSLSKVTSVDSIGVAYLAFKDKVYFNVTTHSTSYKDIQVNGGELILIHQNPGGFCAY

T2: canine OX40L, full length membrane form, expressed on HEK293 cells (canine)
T2 chain: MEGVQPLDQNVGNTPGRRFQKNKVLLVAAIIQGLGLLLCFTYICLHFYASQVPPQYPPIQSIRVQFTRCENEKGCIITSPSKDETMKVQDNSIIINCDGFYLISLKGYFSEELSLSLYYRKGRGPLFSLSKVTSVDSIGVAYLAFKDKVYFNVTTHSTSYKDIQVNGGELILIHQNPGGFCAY


Legend:
[1] = molecular target: T1, recombinant canine OX40L ECD-TNCc-HIS …; assay: SPR Koff (kd1)
Protocol: (§1) Affinity (Kd) of OX40L antibodies is measured by SPR, using a recombinant canine OX40L ECD-TNCc-HIS protein (Seq ID 811) as the capturing agent (FIG. 5B).
(§2) Functional affinity is determined using a Biakore 8K (Cytiva). in brief, purified OX40L ECD-TNCc-HIS protein is covalently bound at low density to the surface of a CM5 sensor chip (Cytiva) by amine coupling, using the manufacturer's recommended protocol. Candidate antibodies are subsequently passed across the chip surface at a range of concentrations and affinity determined using the dedicated software (Biacore Insight Evaluation Software). Curves were fitted using a bivalent analyte binding model.

[2] = molecular target: T2, canine OX40L, full length membrane …; assay: cell-based or functional assay
[3] = molecular target: T2, canine OX40L, full length membrane …; assay: flow cytometry, OX40L HEK minus WT HEK
Protocol: (§3) CHO supernatants diluted in FACS buffer (PBS containing 3% FBS) at 1, 5 or 10 μg/ml were used to screen for their binding capacity to canine OX40L using a cell-based assay. In brief, HEK293 or MEF cells (or any other commonly used cell lines) expressing canine OX40L at the cell surface are incubated with 100 μll of FACS buffer containing the candidate antibody for 30′ on ice. Cells are washed with 150 μl FACS buffer followed by centrifugation at 300 g for 3 min. The cell pellet is resuspended in FACS buffer containing a 1:1000 dilution of a fluorescently labelled secondary antibody recognising the canine Fc region of the test antibody for 30 min in the dark, followed by washing with 150 μl FACS buffer. Cells are resuspended in FACS buffer and flow cytometry performed using either a […] cytometer, followed by data analysis using FlowJo (FIG. 6 and Table 4).

[4] = molecular target: T2, canine OX40L, full length membrane …; assay: flow cytometry
Protocol: as §3

[5] = molecular target: T1, recombinant canine OX40L ECD-TNCc-HIS …; assay: SPR Koff (kd2)
Protocol: as §1, §2

[6] = molecular target: T1, recombinant canine OX40L ECD-TNCc-HIS …; assay: SPR KD1, bivalent analyte model
Protocol: as §1, §2

koff [1] [s⁻¹] | % Signal Inhibition Average [2] [%] | % Signal Inhibition Rep1 [2] [%] | % Signal Inhibition Rep2 [2] [%] | % Signal Inhibition Rep3 [2] [%] | GEO mean difference [3] | GEO mean OX40L expressing HEK [4] | koff [5] [s⁻¹] | Kd [6] [nM] | Binder
0.00276 | 22.2 | 15.7 | 29.2 | 21.7 | 734000 | 765000 | 0.0725 | 12 | PMX052 (antibody, V domains shown, also called PMX52) VH: EVQLVESGGDLVKPAGSLRLSCVASGFTFSSYSMSWVRQAPEKGLQLVAGISGGGSRTYYSDAVKGRFTISRDNAKNTVYLQMNSLRAEDTAIYYCAKDGGSWAGYNFDYWGQGTLVTVSS VL: DIVMTQTPPSLSVSPRETASISCKASQSLLHSDGSTYLDWYLQKPGQSPQLLIYLGSNRFTGVSDRFSGSGSGTEFTLRISRVEANDTGVYYCGQGTQLPYTFGQGTELEIK
0.00211 | 84.7 | 84.6 | 79.3 | 90.1 | 3.48e+06 | 3.5e+06 | 22 | 15.6 | PMX049 (antibody, V domains shown, also called PMX49) VH: EVQLVESGGDLVKPGGSLRLSCVASGFTFNNYEMYWVRQAPGKGLEWVARIYESGSTTFSAEAVTGRFTISRDNAKNMVYLQMNSLRAEDTAVYYCASASSSSWRFDYWGQGTLVTVSS VL: SYVLTQLPSVSVTLGQTARITCGGDSIGRKNVCWFQQRLGQAPELIIYDDRSRPSGIPERFSGANSGNTATLTISGALAEDEADYYCQVWDSSTGVFGGGTHLTVL
0.0183 | 78.4 | 85.7 | 79.8 | 69.8 | 1.39e+06 | 1.42e+06 | 0.000862 | 308 | PMX037 (antibody, V domains shown, also called PMX37) VH: EVQLLESGGDLVKPGGSLRLSCVASGFTFSNYEMYWVRQAPGKGLEWVARFYESGSTTYSAEAVPGRFTISRDNAKNMAYLQMNSLRAEDTAVYYCASASSSSWRFDYWGQGTLVTVSS VL: SYVLTQLPSVSVTLGQTARITCGGDSIGSKNVYWFQQKLGQAPVLIIYDDRSRPSGIPERFSGANSGNTATLTISGALAEDEADYYCQVWDSSTGVFGGGTHLTVL
0.00485 | 69.9 | 57.5 | 69.3 | 82.9 | 3.9e+06 | 3.92e+06 | 21 | 12.2 | PMX048 (antibody, V domains shown, also called PMX48) VH: EVQLVESGGDLVKPGGSLRLSCVASGFTFNNYEMYWVRQAPGKGLEWVARIYESGTTTYSAEADTGRFTISRDNAKNMVFLQMNSLRAEDTAVYYCASASSSTWRFDYWGQGTLVTVSS VL: SYVLTQLPSVSVTLGQTARITCGGDSIGRKNVYWFQQKLGQAPVLIIYDDRSRPSGIPERFSGANSGNTATLTISGALAEDEADYYCQVWDSSTGVFGGGTHLTVL
0.00119 | 84.1 | 82.2 | 75.3 | 94.7 | 3.92e+06 | 3.94e+06 | 4.81 | 7.92 | PMX051 (antibody, V domains shown, also called PMX51) VH: EVQLVESGGDLVKPGGSLRLSCVASGFSFNTYHMNWVRQAPGKGLHWVAFINSDGGGTSYADTVKGRFTISRDYAKNTLYLQMNSLRAEDTAVYYCVSGSIWTHFDYWGQGTLVTVSS VL: SYVLTQLPSVSMTLRQTAHITCGGDIIGSKSVYWYQQKLGQAPVLIIYRDTNRPTGIPERFSGASSGNTATLTISGALAEDEADYYCQVWDSSTQAVFGGGTHLTVL
0.00174 | 84.2 | 85.4 | 94.8 | 72.5 | 580000 | 584000 | 1.23 | 17.6 | PMX105 (antibody, V domains shown) VH: EVQLVESGGDLVKPGGSLRLSCVASGFTFNTYHMNWVRQAPGKGLHWVAFINSGGSGTSYEDTVQGRFTISRDYAKNTLYLQMNSLRAEDTAVYYCACGSIWTHFDYWGQGTLVTVSS VL: SYVLTQLPSVSVTLRQTAHITCGGDIIGSKSVYWYQQKLGQAPVMIIYRDNNRPTGIPERFSGASSGNTATLTISGSLAEDEADYYCQVWDSRTQALFGGGTHLTVL
0.0161 | 80.4 | 72.2 | 83.5 | 85.5 | 1.62e+06 | 1.65e+06 | 0.000505 | 316 | PMX027 (antibody, V domains shown, also called PMX27) VH: EVHLVESGGDLVKPGGSLRLSCVASGFTFSTYHMSWVRQAPGKGLQWVAFINAGEISTNYADAVKGRFTISRDNAKNIFYLQMNSLRAEDTAVYYCATGHIWIRPFDYWGQGTLVTVSS VL: SYVLTQLPSMSVTLRQTARITCEGNSIGRKRVNWYQQKLGQVPVLIIYDDDSRPSGIPERFSGANSGNTATLTISGALAEDEAEYYCQVWDSSNNWVFGEGTQLTVL
0.0134 | 80.1 | 86.4 | 78.2 | 75.6 | 1.53e+06 | 1.56e+06 | 0.000409 | 1590 | PMX041 (antibody, also called PMX41) heavy: EVHLVESGGDLVKPEGSLRLSCVVSGFTFTTNDMSWVRQAPGKGLQWVAYITSDGRITTYTDAVKGRFTISRDNAKNTLYLQMNSLRTEDTAVYYCAKHSSNWSRGRFGLDYWGHGTSLFVSSASTTAPSVFPLAPSCGSTSGSTVALACLVSGYFPEPVTVSWNSGSLTSGVHTFPSVLQSSGLYSLSSMVTVPSSRWPSETFTCNVAHPASKTKVDKPVPKRENGRVPRPPDCPKCPAPESLGGPSVFIFPPKPKDTLLIARTPEVTCVVVDLGREDPEVQISWFVDGKQMQTAKTQPREEQFNGTYRVVSVLPIGHQDWLKGKQFTCKVNHIGLPSPIERTISKARGQAHQPSVYVLPPSREELSKNTVSLTCLIKDFFPPDIDVEWQSNGQQEPESKYRTTPPQLDEDGSYFLYSKLSVDKSRWQRGDTFICAVMHEALHNHYTQKSLSHSPGK VL: SYVLTQLPSKNVTLKQPAHITCGGDNIGSKSVHWYQQKLGQAPVLIIYYDSSRPTGIPERFSGANSGNTATLTISGALAEDEADYYCQVWDNSASVFGGGTHLTVL
0.0128 | 80.6 | 81.7 | 86.6 | 73.6 | 1.49e+06 | 1.52e+06 | 0.00139 | 46.4 | PMX039 (antibody, also called PMX39) heavy: EVQLVESGGDLVKPEGSLRLSCVVSGFTFITNDMSWVRQAPGKGLQWVAYITNDGRYTSYTDAVKGRFTISRDNAKNTLYLQMNSLRTEDTAVYYCAKHSSNYYRGRFGMDYWGHGTSLFVSSASTTAPSVFPLAPSCGSTSGSTVALACLVSGYFPEPVTVSWNSGSLTSGVHTFPSVLQSSGLYSLSSMVTVPSSRWPSETFTCNVAHPASKTKVDKPVPKRENGRVPRPPDCPKCPAPESLGGPSVFIFPPKPKDTLLIARTPEVTCVVVDLGREDPEVQISWFVDGKQMQTAKTQPREEQFNGTYRVVSVLPIGHQDWLKGKQFTCKVNHIGLPSPIERTISKARGQAHQPSVYVLPPSREELSKNTVSLTCLIKDFFPPDIDVEWQSNGQQEPESKYRTTPPQLDEDGSYFLYSKLSVDKSRWQRGDTFICAVMHEALHNHYTQKSLSHSPGK VL: SYVLTQLPSKNVTLKQPAHITCGGDNIGSKSVHWYQQKLGQAPVLIIYYDSTRPTGIPERFSGANSGNTATLTISGALAEDEADYYCQVWDSSASVFGGGTHLTVL
0.000525 | 76.6 | 68.7 | 83.3 | 77.6 | 3.06e+06 | 3.08e+06 | 0.161 | 1.31 | PMX050 (antibody, V domains shown, also called PMX50) VH: EVQLVESGGDLVKPEGSLRLSCVVSGFTFTTYDMSWVRQAPGKGLQWVAYITNDGRITTYTDAVKGRFTISRDNAKNTLYLQMNSLRTVDTGVYYCARHSSSWSRGRFGLDYWGHGTSVFVSS VL: SYVLTQLPSKNVTLKQPAHITCGGDNIGRKGVHWYQQKLGQAPVLIIYYDSSRPTGIPERFSGANSGNTATLTISGALAEDEADYYCQVWDNSASVFGGGTHLTVL
